The values below come from PMC2796841 (Integrative biology : quantitative biosciences from nano to …, 2009).

The data set relates to tumor. The conditions noted are these: mouse, in vivo.

For PAMAM-e9-xPLGLAG-r9-k(Cy5), the “time of maximal contrast after injection” value worked out at 48 h.
